Literature values as cited in patent US20050181485A1, “Cellulose digesting enzyme gene and utilization of the gene” (priority 2002, published 2005).
Read-outs that look alike come from different tables or passages of the source.

Conditions: known cellobiose dehydrogenases

B1: Phanerochaete chrysosporium: known cellobiose dehydrogenase reported by Henriksson et al. (protein, UniProt Q01738 19-773, looked up)
Cellobiose dehydrogenase: QSASQFTDPTTGFQFTGITDPVHDVTYGFVFPPLATSGAQSTEFIGEVVAPIASKWIGIALGGAMNNDLLLVAWANGNQIVSSTRWATGYVQPTAYTGTATLTTLPETTINSTHWKWVFRCQGCTEWNNGGGIDVTSQGVLAWAFSNVAVDDPSDPQSTFSEHTDFGFFGIDYSTAHSANYQNYLNGDSGNPTTTSTKPTSTSSSVTTGPTVSATPYDYIIVGAGPGGIIAADRLSEAGKKVLLLERGGPSTKQTGGTYVAPWATSSGLTKFDIPGLFESLFTDSNPFWWCKDITVFAGCLVGGGTSVNGALYWYPNDGDFSSSVGWPSSWTNHAPYTSKLSSRLPSTDHPSTDGQRYLEQSFNVVSQLLKGQGYNQATINDNPNYKDHVFGYSAFDFLNGKRAGPVATYLQTALARPNFTFKTNVMVSNVVRNGSQILGVQTNDPTLGPNGFIPVTPKGRVILSAGAFGTSRILFQSGIGPTDMIQTVQSNPTAAAALPPQNQWINLPVGMNAQDNPSINLVFTHPSIDAYENWADVWSNPRPADAAQYLANQSGVFAGASPKLNFWRAYSGSDGFTRYAQGTVRPGAASVNSSLPYNASQIFTITVYLSTGIQSRGRIGIDAALRGTVLTPPWLVNPVDKTVLLQALHDVVSNIGSIPGLTMITPDVTQTLEEYVDAYDPATMNSNHWVSSTTIGSSPQSAVVDSNVKVFGTNNLFIVDAGIIPHLPTGNPQGTLMSAAEQAAAKILALAGGP
- Isoelectric point: 4.2
- Optimal pH: 5.0
- Optimal temperature: 50 °C
- Isoelectric point (listed as cellobiose dehydrogenase derived from Phanerochaete chrysosporium): about 4.2
